In patent publication US20240409960A1, “METHOD FOR CONTROLLING PROTEIN FUNCTION” (The University of Tokyo, priority 2021, published 2024):

Test system: rox sites (Floxed (rox)-STOP Fluc reporter) in HEK293 cells
Experiment: luciferase assay of Dre-rox DNA recombination in HEK293 cells
Format: cell-based, human
Conditions: 5 ng plasmid, TMP 10 nM or 500 nM or DMSO, 24 or 48 hours
Description: For constructing the luciferase reporters detecting for the activities of Flp-FRT recombinase, VCre-Vlox recombinase and Dre-rox recombinase, the FRT site ([…]: SEQ ID No: 37), the Vlox site ([…]: SEQ ID No: 38), the rox site ([…]: SEQ ID No: 39), were inserted into HindIII and KpnI sites and ClaI and EcoRI sites in the pcDNA3.1 (+) vector of the luciferase reporter (of loxP-stop-loxP-Fluc).
For luciferase assay, HEK 293 cells were plated at 25,000 cells per well on a 96-well flat white microplate (Thermo Fisher Scientific), and were then cultured for 24 hours at 37° C. in 5% CO2. The cells were transfected with cDNAs encoding destabilized Cre along with the luciferase reporter (loxP-stop-loxP Fluc), using X-tremeGENE9 reagent (Merck Millipore) at 37° C. The total amount of DNA was 50 ng per well. Twenty-four hours after the transfection, TMP or DMSO was added into the cells, and the cells were further cultured for 24 hours or 48 hours. Just before the luciferase assay, the medium was replaced with Hanks' balanced salt solution (HBSS) (Thermo Fisher Scientific) containing 0.2 mM D-luciferin potassium salt. Bioluminescence measurement was performed for 1 second per well at room temperature using a Centro XS^3 LB 960 plate-reading luminometer (Berthold Technologies).

B1: SPEED-Dre: split Dre (a.a. 2-150 and 151-342), single DD on the N-terminal and C-terminal sides; SEQ ID No: 24 (protein)
chain: MVSKYPYDVPDYARSGGSGGMISLIAALAVDYVIGMENAMPWNLPADLAWFKRNTLNKPVIMGRHTWESIGRPLPGRKNIILSSQPSTDDRVTWVKSVDEAIAACGDVPEIMVIGGGRVIEQFLPKAQKLYLTHIDAEVEGDTHFPDYEPDDWESVFSEFHDADAQNSHSYCFEILERRGGSGGSGGKLVPKKKRKVGGSELIISGSSGGFLRNIGKEYQEAAENFMRFMNDQGAYAPNTLRDLRLVFHSWARWCHARQLAWFPISPEMAREYFLQLHDADLASTTIDKHYAMLNMLLSHCGLPPLSDDKSVSLAMRRIRREAATEKGERTGQAIPLRWDDLKLLDVLLGSGSGATNFSLLKQAGDVEENPGPLESRSERLVDLRNRAFLFVAYNTLMRMSEISRIRVGDLDQTGDTVTLHISHTKTITTAAGLDKVLSRRTTAVLNDWLDVSGLREHPDAVLFPPIHRSNKARITTTPLTAPAMEKIFSDAWVLLNKRDATPNKGRYRTWTGHSARVGAAIDMAEKQVSMVEIMQEGTWKKPETLMRYLRRGGVSVGANSRLMDSGGSGGSGGMISLIAALAVDYVIGMENAMPWNLPADLAWFKRNTLNKPVIMGRHTWESIGRPLPGRKNIILSSQPSTDDRVTWVKSVDEAIAACGDVPEIMVIGGGRVIEQFLPKAQKLYLTHIDAEVEGDTHFPDYEPDDWESVFSEFHDADAQNSHSYCFEILERR
modifications: MISC_FEATURE - HAtag; DOMAIN 21..179 Degradation Domain; SIGNAL 190..197 Nuclear Localization Signal; MISC_FEATURE - N-terminal side of Dre; MISC_FEATURE - P2A; MISC_FEATURE - C-terminal side of Dre; DOMAIN 575..733 Degradation Domain; Bacteriophage D6
- background and TMP-dependent DNA recombination activity: results similar to those of SPEED-Cre
